Test results reported in paper PMC6202324, “C1GALT1 predicts poor prognosis and is a potential therapeutic target in head and neck cancer” (Oncogene, 2018).

Experiments:
[1] = biological target: C1GALT1 (Core 1 β1,3-galactosyltransferase) (Homo sapiens, UniProt Q9NS00); assay: cellular thermal shift assay (CETSA, western blot) in SAS and OEC-M1 cells; destabilization, dose-dependent; format: cell-based
[2] = biological target: EGFR (endogenous, from control HNSCC cells) (human (endogenous in SAS and OEC-M1)) (UniProt P00533); assay: ELISA; ligand-binding assay: 100 µg lysate of OEC-M1 cells (siCtr or siC1GALT1-2, 72 h) incubated 18 h on plates coated with anti-EGFR antibody; biotin-EGF at different concentrations, 37 °C, 3 h; streptavidin-HRP, O.D. 490 nm; Kd estimated from Scatchard plot
[3] = biological target: EGFR from C1GALT1 knockdown HNSCC cells (human (endogenous in SAS and OEC-M1)) (UniProt P00533); assay: as above
[4] = biological target: EGFR (endogenous, from control HNSCC cells) (human (endogenous in SAS and OEC-M1)) (UniProt P00533); assay: ELISA; ligand-binding assay: 100 µg lysate of SAS cells (siCtr or siC1GALT1-2, 72 h) incubated 18 h on plates coated with anti-EGFR antibody; biotin-EGF at different concentrations, 37 °C, 3 h; streptavidin-HRP, O.D. 490 nm; Kd estimated from Scatchard plot
[5] = biological target: EGFR from C1GALT1 knockdown HNSCC cells (human (endogenous in SAS and OEC-M1)) (UniProt P00533); assay: as above

Sequence of C1GALT1 (Core 1 β1,3-galactosyltransferase) (Q9NS00 whole entry): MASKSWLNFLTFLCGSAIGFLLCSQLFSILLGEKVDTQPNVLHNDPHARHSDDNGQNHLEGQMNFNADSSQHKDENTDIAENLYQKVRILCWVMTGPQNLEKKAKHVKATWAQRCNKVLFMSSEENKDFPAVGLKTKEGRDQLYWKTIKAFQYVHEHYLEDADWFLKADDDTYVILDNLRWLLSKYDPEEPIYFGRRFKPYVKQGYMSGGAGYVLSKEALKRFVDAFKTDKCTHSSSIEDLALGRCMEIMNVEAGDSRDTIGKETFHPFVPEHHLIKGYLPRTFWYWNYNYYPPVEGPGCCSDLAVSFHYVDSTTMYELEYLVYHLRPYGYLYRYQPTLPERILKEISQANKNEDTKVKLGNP

Row | Kd [2] | Kd [3] | Kd [4] | Kd [5] | Compound | cellular thermal shift assay (CETSA, western blot) in SAS and OEC-M1 cells; dest [1]
1 |  |  |  |  | CCC(C)n1ncn(-c2ccc(N3CCN(c4ccc(OCC5COC(Cn6cncn6)(c6ccc(Cl)cc6Cl)O5)cc4)CC3)cc2)c1=O (centres unmarked) [ITZ, itraconazole] | melting temperature of C1GALT1 was decreased when SAS and OEC-M1 cells were treated with itraconazole
2 | 26.1 nM | 58.8 nM | 32 nM | 42.3 nM | Biotin-EGF (ligand) | 
